Patent publication US20220218639A1

Legend:
preformed blood clots = test: In-vitro circulating plasma lung model of pulmonary embolism; details: circulating human plasma
Protocol: The in-vitro circulating plasma lung model 200 of pulmonary embolism (as shown in FIGS. 22 and 23), consists of a 3-D printed circuit 210, designed to mimic lung vasculature, and in which preformed blood clots of known mass are placed. This “lung” is in fluid connection with a reservoir 220 of approximately 200-250 mL of human plasma, type-matched to the clots, that is recirculated with a peristaltic pump 230, passed through a heating element (not shown), then pumped through the lung itself at a physiological constant pressure. An injection port 240 allows injection of reagents, enzymes or other molecules. After lysis is initiated, the “lung” is circulated for one hour. Clots are weighed before and after completion of the experiment reweighed, to provide for percentage of clot lysis information for each treatment regime.
In this Example, pulmonary embolism was simulated using the in-vitro lung model of Example 13 and the ability of the delivery system of the present disclosure was analyzed for its ability to remove clots.
Particularly, human plasma (200-250 mL), recirculated (37° C.) and loaded with approximately 4 grams type-matched clots was injected into the delivery system. After 1 hour of circulation, the clots were removed and weighed.

plasmin = plasmin (Homo sapiens, UniProt P00747); details: binding to the serine in plasmin's active site; cited from earlier work
plasmin, sequence (P00747 581-810 limits assumed): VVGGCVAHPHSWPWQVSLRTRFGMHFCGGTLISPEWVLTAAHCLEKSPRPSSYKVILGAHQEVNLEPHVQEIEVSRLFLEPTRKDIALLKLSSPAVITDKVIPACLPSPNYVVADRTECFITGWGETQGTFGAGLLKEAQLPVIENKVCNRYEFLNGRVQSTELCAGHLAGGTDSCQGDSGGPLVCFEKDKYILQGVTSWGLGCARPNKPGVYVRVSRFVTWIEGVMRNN
plasmin, sequence (P00747 97-580 limits assumed): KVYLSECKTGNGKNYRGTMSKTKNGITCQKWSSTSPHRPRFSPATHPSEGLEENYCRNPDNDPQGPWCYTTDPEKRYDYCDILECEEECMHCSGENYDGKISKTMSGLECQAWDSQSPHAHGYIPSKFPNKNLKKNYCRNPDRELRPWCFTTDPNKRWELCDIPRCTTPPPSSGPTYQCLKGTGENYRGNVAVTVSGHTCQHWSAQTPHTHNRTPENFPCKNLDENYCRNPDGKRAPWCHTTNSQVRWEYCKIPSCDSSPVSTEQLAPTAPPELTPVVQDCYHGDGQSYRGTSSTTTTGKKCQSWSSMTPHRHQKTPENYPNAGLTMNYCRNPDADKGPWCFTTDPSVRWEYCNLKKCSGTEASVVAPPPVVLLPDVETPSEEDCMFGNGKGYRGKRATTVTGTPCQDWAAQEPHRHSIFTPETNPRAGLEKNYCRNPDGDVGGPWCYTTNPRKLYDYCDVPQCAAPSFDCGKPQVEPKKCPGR

Molecule | reduction in antiplasmin (α2 AP) (preformed blood clots) | rate constant of plasmin inhibition (plasmin)
tPA: Tissue plasminogen activator, converts plasminogen into plasmin (protein, UniProt P00750 36-562, looked up) Tissue-type plasminogen …: SYQVICRDEKTQMIYQQHQSWLRPVLRSNRVEYCWCNSGRAQCHSVPVKSCSEPRCFNGGTCQQALYFSDFVCQCPEGFAGKCCEIDTRATCYEDQGISYRGTWSTAESGAECTNWNSSALAQKPYSGRRPDAIRLGLGNHNYCRNPDRDSKPWCYVFKAGKYSSEFCSTPACSEGNSDCYFGNGSAYRGTHSLTESGASCLPWNSMILIGKVYTAQNPSAQALGLGKHNYCRNPDGDAKPWCHVLKNRRLTWEYCDVPSCSTCGLRQYSQPQFRIKGGLFADIASHPWQAAIFAKHRRSPGERFLCGGILISSCWILSAAHCFQERFPPHHLTVILGRTYRVVPGEEEQKFEVEKYIVHKEFDDDTYDNDIALLQLKSDSSRCAQESSVVRTVCLPPADLQLPDWTECELSGYGKHEALSPFYSERLKEAHVRLYPSSRCTSQHLLNRTVTDNMLCAGDTRSGGPQANLHDACQGDSGGPLVCLNDGRMTLVGIISWGLGCGQKDVPGVYTKVTNYLDWIRDNMRP | fully depleted | 
α2-antiplasmin: Circulating serpin that rapidly inhibits plasmin (protein) NQEQVSPLTLLKLGNQEPGGQTALKSPPGVCSRDPTPEQTHRLARAMMAFTADLFSLVAQTSTCPNLILSPLSVALALSHLALGAQNHTLQRLQQVLHAGSGPCLPHLLSRLCQDLGPGAFRLAARMYLQKGFPIKEDFLEQSEQLFGAKPVSLTGKQEDDLANINQWVKEATEGKIQEFLSGLPEDTVLLLLNAIHFQGFWRNKFDPSLTQRDSFHLDEQFTVPVEMMQARTYPLRWFLLEQPEIQVAHFPFKNNMSFVVLVPTHFEWNVSQVLANLSWDTLHPPLVWERPTKVRLPKLYLKHQMDLVATLSQLGLQELFQAPDLRGISEQSLVVSGVQHQSTLELSEVGVEAAAATSIAMSRMSLSSFSVNRPFLFFIFEDTTGLPLFVGSVRNPNPSAPRELKEQQDSPGNKDFLQSLKGFPRGDKLFGPDLKLVPPMEEDYPQFGSPK |  | 4×10^7 M^−1Sec^−1
